In paper PMC9167920:

Target: CTSL-treated SARS-CoV-2 S protein ectodomain SR (cleaved at CS-1, T259/A260, and CS-2, Y636/S637) (SARS-CoV-2) (UniProt P0DTC2)
Assay: cryo-EM structure

CTSL-treated SARS-CoV-2 S protein ectodomain SR (cleaved at CS-1, T259/A260, and CS-2, Y636/S637) (from UniProt P0DTC2) (domain or fragment)
stoichiometry N: 3
